Among the data in article PMC5657976 are bound fraction, fold over GST-Ig58/Ig59^MUT and Kd values, retold here.

For assay [1], the target named is GST-obscurin-Ig58/Ig59^WT (human) (UniProt Q5VST9). The experiment in a line: pull-down; 12 ug GST fusion protein on glutathione-Sepharose with 5 ul of the translation reaction; 10 mM Tris-HCl pH 7.9, 150 mM NaCl, 0.5% NONIDET P-40, 1 mM DTT, 1.5 hrs at 4°C; anti-myc Western blot, densitometry normalised to GST protein. Background: Immunoblotting shows a protein as a band on a membrane.

In assay [2] the target is GST-linked titin ZIg9/ZIg10 (human) (UniProt Q8WZ42). The experiment in a line: SPR; Nicoya OpenSPR, GST-linked titin ZIg9/ZIg10 immobilised on an Au-GST chip; obscurin Ig58/Ig59 injected at 50 ul/min; 20 mM Tris pH 7.5, 50 mM NaCl; 27°C (methods; 22°C in the legend of S11 Fig); 1:1 interaction model.

In assay [1], “myc-tagged titin domains ZIg9/ZIg10 (from UniProt Q8WZ42-12 1-35991) (domain or fragment)” showed a bound fraction, fold over GST-Ig58/Ig59^MUT of 2 fold.
“obscurin Ig58/Ig59 p.Arg4444Trp (domain or fragment)” returned a Kd in assay [2] of 1600 nM.
As for “obscurin Ig58/Ig59 (wild type) (from UniProt Q5VST9 1-7968) (domain or fragment)”, the Kd in assay [2] turned out to be 108 nM.

As a reminder, the Kd is the equilibrium constant for the complex coming apart.
